Results taken from PMC9312489, “Tertiary and Quaternary Structure Organization in GMP Synthetases: Implications for Catalysis” (Biomolecules, 2022).
Numbering of substitutions follows the chain as printed. Names may count otherwise.

B1: Native Plasmodium falciparum GMP synthetase (PfGMPSwt) (enzyme, UniProt Q8IJR9 1-555, looked up)
chain: MEGEEYDKILVLNFGSQYFHLIVKRLNNIKIFSETKDYGVELKDIKDMNIKGVILSGGPYSVTEAGSPHLKKEVFEYFLEKKIPIFGICYGMQEIAVQMNGEVKKSKTSEYGCTDVNILRNDNINNITYCRNFGDSSSAMDLYSNYKLMNETCCLFENIKSDITTVWMNHNDEVTKIPENFYLVSSSENCLICSIYNKEYNIYGVQYHPEVYESLDGELMFYNFAYNICKCKKQFDPIRYHELELKNIEKYKHDHYVIAAMSGGIDSTVAAAYTHKIFKERFFGIFIDNGLLRKNEAENVYTFLKSTFPDMNITKIDASENFLSNLQGVTDPEQKRKIIGKLFIEEFEKAVNNIDIDINKTFLLQGTLYPDIIESKCSKNLSDTIKTHHNVGGLPKNLKFKLFEPFKYLFKDDVKTLSRELNLPEEITNRHPFPGPGLAIRVIGEINKHKLNILREVDDIFINDLKQYGLYNQISQAFAVLLSSKSVGVRGDARSYDYVCVLRAVKTSSFMTANWYQIPYDILDKITTRILSEVKGVNRILYDVSSKPPATIEFE
notes: GMP synthetase of Plasmodium falciparum, native gene PF10_0123 (PlasmoDB); also called native enzyme; wild-type enzyme; source: E. coli (pQE30PfGMPS construct), purified (HisTrap HP, Superdex 200 SEC)
B2: PfGMPS_C89A (enzyme)
chain: B1 chain with C89A
notes: GMP synthetase of Plasmodium falciparum (PF10_0123) with the catalytic Cys89 of the GATase domain mutated to alanine; made with pETPfGMPS as template; this is a point mutant made on the plasmid pETPfGMPS; also called C89A single mutant; single mutant enzyme; source: E. coli BL21-CodonPlus(DE3)-RIL (pETPfGMPS mutant construct), purified (HisTrap HP, Superdex 200 SEC)

Biological target: the molecule itself
Experiment: SAXS; samples in solution at ~12 mg/mL, beamline BM29 (ESRF), ATSAS analysis, ab initio shapes

Row | Protein | stoichiometry N
1 | B1 | 2
2 | B2 | 2
